Experimental data taken from paper PMC6351565.
Positions count from the first letter of the chain named. Names may count otherwise.

T1: endogenous 14-3-3 (all isoforms included), P27348
T1 chain: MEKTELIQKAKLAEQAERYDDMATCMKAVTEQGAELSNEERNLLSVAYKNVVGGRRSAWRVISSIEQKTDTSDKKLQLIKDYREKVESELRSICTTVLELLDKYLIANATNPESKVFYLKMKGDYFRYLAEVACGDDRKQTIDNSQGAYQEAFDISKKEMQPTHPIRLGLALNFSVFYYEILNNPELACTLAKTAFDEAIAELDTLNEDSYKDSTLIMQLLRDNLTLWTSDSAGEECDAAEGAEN

B1: IRSp53-FLAG (wild type), natively phosphorylated, Q9UQB8-4 T340A; T360A (protein)
chain: MSLSRSEEMHRLTENVYKTIMEQFNPSLRNFIAMGKNYEKALAGVTYAAKGYFDALVKMGELASESQGSKELGDVLFQMAEVHRQIQNQLEEMLKSFHNELLTQLEQKVELDSRYLSAALKKYQTEQRSKGDALDKCQAELKKLRKKSQGSKNPQKYSDKELQYIDAISNKQGELENYVSDGYKTALTEERRRFCFLVEKQCAVAKNSAAYHSKGKELLAQKLPLWQQACADPSKIPERAVQLMQQVASNGATLPSALSASKSNLVISDPIPGAKPLPVPPELAPFVGRMSAQESTPIMNGVTGPDGEDYSPWADRKAAQPKSLSPPQSQSKLSDSYSNALPVRKSVTPKNSYATTENKALPRSSSMAAGLERNGRMRVKAIFSHAAGDNSTLLSFKEGDLITLLVPEARDGWHYGESEKTKMRGWFPFSYTRVLDSDGSDRLHMSLQQGKSSSTGNLLDKDDLAIPPPDYGAASRAFPAQTASGFKQRPYSVAVPAFSQGLDDYGARSMSRNPFAHVQLKPTVTNDRCDLSAQGPEGREHGDGSARTLAGR
B2: IRSp53-FLAG (wild type), natively phosphorylated, Q9UQB8-4 S452A; S453A; S454A; T455A (protein)
chain: MSLSRSEEMHRLTENVYKTIMEQFNPSLRNFIAMGKNYEKALAGVTYAAKGYFDALVKMGELASESQGSKELGDVLFQMAEVHRQIQNQLEEMLKSFHNELLTQLEQKVELDSRYLSAALKKYQTEQRSKGDALDKCQAELKKLRKKSQGSKNPQKYSDKELQYIDAISNKQGELENYVSDGYKTALTEERRRFCFLVEKQCAVAKNSAAYHSKGKELLAQKLPLWQQACADPSKIPERAVQLMQQVASNGATLPSALSASKSNLVISDPIPGAKPLPVPPELAPFVGRMSAQESTPIMNGVTGPDGEDYSPWADRKAAQPKSLSPPQSQSKLSDSYSNTLPVRKSVTPKNSYATTENKTLPRSSSMAAGLERNGRMRVKAIFSHAAGDNSTLLSFKEGDLITLLVPEARDGWHYGESEKTKMRGWFPFSYTRVLDSDGSDRLHMSLQQGKAAAAGNLLDKDDLAIPPPDYGAASRAFPAQTASGFKQRPYSVAVPAFSQGLDDYGARSMSSGSGTLVSTV
B3: IRSp53-FLAG (wild type), natively phosphorylated, Q9UQB8-4 T340A (protein)
chain: B2 chain with T340A, A452S, A453S, A454S, A455T
B4: IRSp53-FLAG (wild type), natively phosphorylated, Q9UQB8-4 S366A (protein)
chain: B2 chain with S366A, A452S, A453S, A454S, A455T
B5: IRSp53-FLAG (wild type), natively phosphorylated, Q9UQB8-4 T360A (protein)
chain: B2 chain with T360A, A452S, A453S, A454S, A455T

Target: T1, endogenous 14-3-3 (all isoforms …)
Test: coimmunoprecipitation (quantified western blot)
Conditions: chain shown with the change; serum-starved cells; parent: est. 1.0; read off a plot

Binder | ratio to parent
B1 | 0.05
B2 | 0.98
B3 | 0.1
B4 | 0.62
B5 | 0.12
